Data: patent US20100196919A1, “PEPTIDES, ANTIBODIES AND FRAGMENTS THEREOF FOR THE TREATMENT AND DIAGNOSTIC OF CELIAC DISEASE” (UNIVERSITÀ DEGLI STUDI DI VERONA, priority 2007, published 2010)

T1: solid-phase desmoglein 1 (Homo sapiens, UniProt Q02413)
T1 construct: purchased MBL
T1 sequence (Q02413 50-1049): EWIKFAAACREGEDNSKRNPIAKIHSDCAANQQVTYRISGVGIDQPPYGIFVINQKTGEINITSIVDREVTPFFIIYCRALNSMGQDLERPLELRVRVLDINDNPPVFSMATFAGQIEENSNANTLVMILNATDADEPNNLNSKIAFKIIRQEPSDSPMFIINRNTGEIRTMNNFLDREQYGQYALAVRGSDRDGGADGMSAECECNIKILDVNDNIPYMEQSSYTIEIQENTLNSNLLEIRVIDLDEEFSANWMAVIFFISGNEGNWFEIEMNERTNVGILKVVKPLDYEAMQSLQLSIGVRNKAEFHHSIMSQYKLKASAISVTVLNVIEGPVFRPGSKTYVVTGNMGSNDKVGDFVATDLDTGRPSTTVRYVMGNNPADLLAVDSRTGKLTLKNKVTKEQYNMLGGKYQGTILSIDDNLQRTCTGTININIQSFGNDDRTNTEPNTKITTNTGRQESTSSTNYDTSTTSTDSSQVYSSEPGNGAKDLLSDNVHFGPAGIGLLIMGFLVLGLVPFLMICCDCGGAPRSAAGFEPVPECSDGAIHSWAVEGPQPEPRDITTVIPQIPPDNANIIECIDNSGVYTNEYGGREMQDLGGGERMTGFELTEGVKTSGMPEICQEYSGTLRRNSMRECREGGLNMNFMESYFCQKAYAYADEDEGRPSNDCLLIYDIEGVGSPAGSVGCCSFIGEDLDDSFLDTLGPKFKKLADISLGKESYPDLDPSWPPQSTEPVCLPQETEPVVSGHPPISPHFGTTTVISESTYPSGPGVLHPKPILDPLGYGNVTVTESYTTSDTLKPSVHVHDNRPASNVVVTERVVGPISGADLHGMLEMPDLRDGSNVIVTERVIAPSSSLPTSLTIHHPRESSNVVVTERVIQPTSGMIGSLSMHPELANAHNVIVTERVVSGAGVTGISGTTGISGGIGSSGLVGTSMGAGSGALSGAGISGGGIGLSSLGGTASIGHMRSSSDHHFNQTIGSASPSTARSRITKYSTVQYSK

T2: solid-phase tTG (Homo sapiens, UniProt P21980)
T2 construct: purchased Eurospital
T2 sequence (P21980 1-687): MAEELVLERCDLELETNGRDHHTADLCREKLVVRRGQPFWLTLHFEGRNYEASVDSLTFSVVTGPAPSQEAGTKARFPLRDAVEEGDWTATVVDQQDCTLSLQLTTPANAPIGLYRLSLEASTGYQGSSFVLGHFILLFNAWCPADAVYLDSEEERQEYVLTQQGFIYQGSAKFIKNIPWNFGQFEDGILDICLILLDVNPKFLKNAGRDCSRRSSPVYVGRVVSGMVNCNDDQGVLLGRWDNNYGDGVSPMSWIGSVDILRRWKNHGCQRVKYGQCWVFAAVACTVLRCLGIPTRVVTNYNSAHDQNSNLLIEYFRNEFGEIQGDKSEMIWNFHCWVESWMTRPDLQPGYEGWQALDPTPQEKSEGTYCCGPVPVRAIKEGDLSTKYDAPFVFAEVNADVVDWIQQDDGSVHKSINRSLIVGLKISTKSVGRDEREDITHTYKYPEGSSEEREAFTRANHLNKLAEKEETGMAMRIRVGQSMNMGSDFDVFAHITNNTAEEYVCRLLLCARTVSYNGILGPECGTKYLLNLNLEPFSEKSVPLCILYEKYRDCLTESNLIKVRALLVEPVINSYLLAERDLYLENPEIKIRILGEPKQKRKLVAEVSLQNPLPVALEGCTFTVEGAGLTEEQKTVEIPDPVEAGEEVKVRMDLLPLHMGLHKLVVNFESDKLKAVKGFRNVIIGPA

B1: human recombinant tTG: commercially available recombinant human tissue transglutaminase used as competitor (protein, UniProt P21980 2-687, looked up)
Protein-glutamine …: AEELVLERCDLELETNGRDHHTADLCREKLVVRRGQPFWLTLHFEGRNYEASVDSLTFSVVTGPAPSQEAGTKARFPLRDAVEEGDWTATVVDQQDCTLSLQLTTPANAPIGLYRLSLEASTGYQGSSFVLGHFILLFNAWCPADAVYLDSEEERQEYVLTQQGFIYQGSAKFIKNIPWNFGQFEDGILDICLILLDVNPKFLKNAGRDCSRRSSPVYVGRVVSGMVNCNDDQGVLLGRWDNNYGDGVSPMSWIGSVDILRRWKNHGCQRVKYGQCWVFAAVACTVLRCLGIPTRVVTNYNSAHDQNSNLLIEYFRNEFGEIQGDKSEMIWNFHCWVESWMTRPDLQPGYEGWQALDPTPQEKSEGTYCCGPVPVRAIKEGDLSTKYDAPFVFAEVNADVVDWIQQDDGSVHKSINRSLIVGLKISTKSVGRDEREDITHTYKYPEGSSEEREAFTRANHLNKLAEKEETGMAMRIRVGQSMNMGSDFDVFAHITNNTAEEYVCRLLLCARTVSYNGILGPECGTKYLLNLNLEPFSEKSVPLCILYEKYRDCLTESNLIKVRALLVEPVINSYLLAERDLYLENPEIKIRILGEPKQKRKLVAEVSLQNPLPVALEGCTFTVEGAGLTEEQKTVEIPDPVEAGEEVKVRMDLLPLHMGLHKLVVNFESDKLKAVKGFRNVIIGPA

Key:
[1] = tested on: Human monocytes; assay: Stimulation of monocytes, FACS analysis of activation markers; type: cell-based; settings: monocytes incubated overnight, antibody preparations 20 μg/ml, LPS 1 μg/ml
Method: Human monocytes were isolated from normal donors and incubated overnight at a density of 1×10^6 cells/ml in RPMI 10% FCS in 24-well plates in the presence of the antibody preparations (20 μg/ml) or lipopolysaccharide (LPS) (1 μg/ml) (Sigma). The medium used and all the antibody preparations were treated with Detoxi-gel endotoxin-removing columns (Pierce). Presence of LPS contaminants in the antibody preparation and buffers as well as in the culture medium was assessed using the HEK-Blue LPS Detection Kit (Invivogen); all the antibody preparation and buffers used throughout the study were devoided of LPS contaminants. Monocytes were then used for fluorescence-activated cell sorting (FACS) analysis.
Cells were incubated with R-phycoerythrin directly conjugated anti-CD1, -CD83, and -CD86 antibodies for 30 min on ice. […] Samples were run on a FACScan flow cytometer (Becton Dickinson, Mountain View, Calif., United States). All the antibodies used were purchased from Immunotech (Marseille, France).

[2] = molecular target: T1, solid-phase desmoglein 1; assay: Competitive ELISA with desmoglein 1-coated plates; type: binding; settings: liquid-phase competitor, 0.6-20 μg/ml
Method: Desmoglein 1-coated plates were purchased from MBL (Woburn, Mass., United States). Serum samples in diluting buffer (serum dilution ranged from 1:400 to 1:800 corresponding to 50% maximal binding to solid-phase desmoglein 1) were pre-incubated with increasing concentrations of competitors (synthetic peptides and recombinant human tTG: 20, 10, 5, 2.5, 1.25, 0.6 μg/ml) for 1 h at 37° C. The mixture was then transferred to the desmoglein-coated plate. In this particular assay, the authors used the desmoglein 1 peptide as liquid-phase competitor, since the only liquid-phase recombinant desmoglein 1 available is an Fc chimera.

[3] = molecular target: T3, solid-phase TLR4 peptide (Homo sapiens, UniProt O00206); assay: Competitive ELISA on solid-phase TLR4 peptide; type: binding; settings: liquid-phase competitor
T3 construct: made in house; host or cells: chemical solid-phase synthesis (FMOC)
Method: (§1) The direct and competitive ELISA for antibody binding to the synthetic peptides have already been described elsewhere. Briefly, the synthetic peptides were used at a concentration of 20 μg/ml in PBS to coat polystyrene plates (Nunc, Roskilde, Denmark). Plates were then blocked for 1 h with PBS 3% BSA. Serum samples were diluted in diluting buffer (PBS 1% BSA 0.05% Tween) and incubated on the plates for 3 h at room temperature. Plates were then washed twice with PBS 1% Tween and twice with PBS. Bound antibodies were detected by an alkaline phosphatase-conjugated anti-human IgA antiserum (1:1,000 in diluting buffer) (Sigma, St. Louis, Mo., United States) or with an alkaline phosphatase-conjugated anti-human IgG antiserum (1:2,000 in diluting buffer) (Sigma). In some experiments, an alkaline phosphatase-conjugated anti-rabbit IgG antiserum (1:2,000 in diluting buffer) (Sigma) was also used. The secondary reagents were incubated overnight at 4° C.; plates were then washed twice with PBS/Tween and twice with PBS. The alkaline phosphatase substrate (Sigma) diluted in bicarbonate buffer was then added to the wells and the plates read after 30 min or 1 h at a spectrophotometer set at 450 nm. For the competitive assay, the amount of antibody (or serum dilution) that gave 50% of the maximum binding to the antigen on the solid phase was pre-incubated for 1 h at 37° C. with different amounts of competitors (20, 10, 5, 2.5, 1.25, 0.6 μg/ml) or buffer (diluting buffer as the one used in the direct ELISA) and then transferred to the antigen-coated plates. The assay was then carried on as the direct binding assay. For the competitive ELISAs presented in this paper in particular, the following experimental conditions were used. (1) Competitive ELISA using tTG-coated plates. Plates coated with human recombinant tTG were purchased from Eurospital. Serum samples in diluting buffer (serum dilution ranged from 1:400 to 1:1,600 corresponding to 50% maximal binding to solid-phase tTG) were pre-incubated with increasing concentration of competitors (synthetic peptides or recombinant human tTG: 20, 10, 5, 2.5, 1.25, 0.6 μg/ml) for 1 h at 37° C. The mixture was then transferred to the tTG-coated plate. The remainder of the assay was performed as the direct binding assay. Results are expressed as: […]

[4] = molecular target: T2, solid-phase tTG; assay: Competitive ELISA using tTG-coated plates; type: binding; settings: pre-incubation with competitor, 0.6-20 μg/ml
Method: as §1

[5] = molecular target: T4, solid-phase HSP60 (Homo sapiens, UniProt P10809); assay: Competitive ELISA on solid-phase HSP60; type: binding; settings: pre-incubation with competitor
T4 construct: purchased Stressgen
Method: as §1, with “Serum samples in diluting buffer (serum dilution ranged from 1:400 to 1:1,600 corresponding to 50% maximal binding to solid-phase tTG) were pre-incubated with increasing concentration of competitors (synthetic peptides or recombinant human tTG: 20, 10, 5, 2.5, 1.25, 0.6 μg/ml) for 1 h at 37° C. The mixture was then transferred to the tTG-coated plate. The remainder of the assay was performed as the direct binding assay.” left out

[6] = tested on: T84 human intestinal epithelial cell line; assay: [3H] mannitol flux across T84 monolayers; type: cell-based; settings: pre-incubation of antibodies with the substance; T84, 3 h
Method: T84 cells obtained from the American Type Culture Collection (Manassas, Va., United States) were grown in a 5% CO2 humidified incubator at 37° C. on 162-cm^2 flasks (Corning Costar, Acton, Mass., United States) with media containing a 1:1 mixture of Ham's F-12 nutrient mixture and DMEM supplemented with 6% heat-inactivated fetal bovine serum, 15 mM HEPES, 14.3 mM NaHCO3, and antibiotics (penicillin and streptomycin)-antimycotics (pH 7.4). Cells were passaged weekly on reaching confluence. For experiments, cells were plated onto collagen-coated permeable supports, where they were fed every 3 d and used from days 7-14 (within fifth passage).
Confluent T84 monolayers grown on 4.7 cm^2 transwell inserts were incubated in HEPES-phosphate-buffered Ringer solution (HPBR, containing 135 mM NaCl, 5 mM KCl, 3.33 mM NaHPO4, 1 mM CaCl2, 1 mM MgCl2, 10 mM glucose, and 5 mM HEPES [pH 7.4]) for 30 min, followed by treatment with basolaterally applied Igs (20 μg/ml) in the presence of [^3H] mannitol (5 μCi/ml) in the basolateral compartment. Apical solution was sampled every 30 min (to detect the presence of [^3H] mannitol) and exchanged with fresh HPBR buffer solution for a total of 4 h. The collected apical samples were placed in vials containing scintillation fluid and analyzed for the presence of [^3H] mannitol by scintillation counter.

T4 sequence (P10809 27-573): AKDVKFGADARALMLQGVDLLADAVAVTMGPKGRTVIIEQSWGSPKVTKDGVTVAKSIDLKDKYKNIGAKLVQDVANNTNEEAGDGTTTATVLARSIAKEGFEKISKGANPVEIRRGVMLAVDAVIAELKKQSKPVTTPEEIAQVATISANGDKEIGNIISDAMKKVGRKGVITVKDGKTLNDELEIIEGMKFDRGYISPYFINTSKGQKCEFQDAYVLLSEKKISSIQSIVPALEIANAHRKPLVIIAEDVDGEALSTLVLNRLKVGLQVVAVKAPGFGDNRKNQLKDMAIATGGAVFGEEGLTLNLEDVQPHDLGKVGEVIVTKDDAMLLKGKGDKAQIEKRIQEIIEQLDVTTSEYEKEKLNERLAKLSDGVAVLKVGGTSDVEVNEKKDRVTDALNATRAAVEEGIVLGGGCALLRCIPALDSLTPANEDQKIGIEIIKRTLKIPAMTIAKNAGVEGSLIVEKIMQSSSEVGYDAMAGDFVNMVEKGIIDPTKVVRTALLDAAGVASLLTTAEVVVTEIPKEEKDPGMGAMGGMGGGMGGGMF

Molecule	Percentage of positive cells, CD83 ([1]; medium alone 9.4%) [%]	Percentage of positive cells, CD40 ([1]; medium alone 62.3%) [%]	inhibition of binding of anti-celiac peptide antibodies to solid-phase desmoglein 1 [2]	inhibition of binding of anti-celiac peptide antibodies to solid-phase TLR4 peptide [3]	inhibition of antibody binding to solid-phase tTG by liquid-phase competitor [4]	inhibition of antibody binding to solid-phase HSP60 by liquid-phase competitor [5]	blocking of the effect of anti-celiac peptide antibodies on cell permeability [6]
lipopolysaccharide [LPS]	45	89					
LSSLGGTASIGH [desmoglein 1 peptide]			inhibited				
VLKMAGNSFQEN [TLR4 peptide]			inhibited	Inhibition			
RIRVGQSMNMGS [tTG peptide]					inhibited	inhibited	
VVKVGGSSSLGW [celiac peptide]			inhibited	Inhibition	inhibited	inhibited	blocked
VTLPKDSDVELP [irrelevant control peptide]				not	not		not
VIQVGGSNVLDI [VP-7 peptide]			inhibited	Inhibition	inhibited	inhibited	
B1			inhibited				blocked
